Results reported in the Immune Epitope Database (IEDB).

Columns and labels:
HLA-A*01:01 [1] = assay: IEDB peptide-MHC binding, purified MHC/direct/fluorescence; filed as Kd, often an IC50 or EC50 that approximates it; ≥ and ≤ were set here for values at or beyond the usual limits of such assays
HLA-A*02:01 [2] = assay: as above
HLA-A*03:01 [3] = assay: as above; settings: source organism: Giardia lamblia ATCC 50803
HLA-A*11:01 [4] = assay: as above
HLA-A*30:01 = assay: as above; settings: source organism: Giardia lamblia ATCC 50803
HLA-A*31:01 [5] = assay: as above
HLA-A*69:01 = assay: as above
HLA-B*07:02 [6] = assay: as above
HLA-B*15:01 = assay: as above; settings: source organism: Giardia lamblia ATCC 50803
HLA-B*15:17 [7] = assay: as above; settings: source organism: Giardia lamblia ATCC 50803
HLA-B*18:01 [8] = assay: as above; settings: source organism: Giardia lamblia ATCC 50803
HLA-B*27:05 = assay: as above
HLA-B*40:01 = assay: as above
HLA-B*46:01 = assay: as above; settings: source organism: Giardia lamblia ATCC 50803
HLA-B*48:01 [9] = assay: as above; settings: source organism: Giardia lamblia ATCC 50803
HLA-B*51:01 [10] = assay: as above; settings: source organism: Giardia lamblia ATCC 50803
HLA-B*57:01 = assay: as above
HLA-B*58:01 [11] = assay: as above
HLA-C*03:03 = assay: as above; settings: source organism: Giardia lamblia ATCC 50803
HLA-B*15:09 = assay: IEDB peptide-MHC binding, purified MHC/competitive/fluorescence; filed as Kd, often an IC50 or EC50 that approximates it; ≥ and ≤ were set here for values at or beyond the usual limits of such assays
HLA-A*01:01 [12] = assay: IEDB peptide-MHC binding, purified MHC/competitive/fluorescence; ≥ and ≤ were set here for values at or beyond the usual limits of such assays; settings: source organism: Homo sapiens
HLA-A*02:01 [13] = assay: as above; settings: source organism: Homo sapiens
HLA-A*03:01 [14] = assay: as above; settings: source organism: Homo sapiens
HLA-A*11:01 [15] = assay: as above; settings: source organism: Homo sapiens
HLA-A*24:02 = assay: as above; settings: source organism: Homo sapiens
HLA-A*25:01 = assay: as above; settings: source organism: Homo sapiens
HLA-A*29:02 = assay: as above; settings: source organism: Homo sapiens
HLA-A*31:01 [16] = assay: as above; settings: source organism: Homo sapiens
HLA-A*68:02 = assay: as above; settings: source organism: Homo sapiens
HLA-B*07:02 [17] = assay: as above; settings: source organism: Homo sapiens
HLA-B*08:01 = assay: as above; settings: source organism: Homo sapiens
HLA-B*14:02 = assay: as above; settings: source organism: Homo sapiens
HLA-B*18:01 [18] = assay: as above; settings: source organism: Homo sapiens
HLA-B*35:01 = assay: as above; settings: source organism: Homo sapiens
HLA-B*37:01 = assay: as above; settings: source organism: Homo sapiens
HLA-B*40:02 = assay: as above; settings: source organism: Homo sapiens
HLA-B*44:03 = assay: as above; settings: source organism: Homo sapiens
HLA-B*51:01 [19] = assay: as above; settings: source organism: Homo sapiens
HLA-B*53:01 = assay: as above; settings: source organism: Homo sapiens
HLA-B*58:01 [20] = assay: as above; settings: source organism: Homo sapiens
HLA-A*26:01 = assay: IEDB peptide-MHC binding, purified MHC/direct/fluorescence; filed as Kd, often an IC50 or EC50 that approximates it; ≥ and ≤ were set here for values at or beyond the usual limits of such assays; settings: source organism: Francisella tularensis subsp. tularensis FSC033
HLA-A*26:03 = assay: as above; settings: source organism: Francisella tularensis subsp. tularensis FSC033
HLA-B*08:02 = assay: as above; settings: source organism: Francisella tularensis subsp. tularensis FSC033
HLA-B*08:03 = assay: as above; settings: source organism: Francisella tularensis subsp. tularensis FSC033
HLA-B*44:02 = assay: as above; settings: source organism: Francisella tularensis subsp. holarctica LVS
HLA-B*15:17 [21] = assay: IEDB peptide-MHC binding, purified MHC/competitive/fluorescence; filed as Kd, often an IC50 or EC50 that approximates it; ≥ and ≤ were set here for values at or beyond the usual limits of such assays; settings: source organism: Francisella tularensis subsp. tularensis FSC198
HLA-B*39:01 = assay: as above; settings: source organism: Francisella tularensis subsp. tularensis FSC198
HLA-B*48:01 [22] = assay: as above
[23] = source organism: Giardia lamblia ATCC 50803
[24] = source organism: Francisella tularensis subsp. holarctica LVS
[25] = source organism: Francisella tularensis subsp. tularensis FSC198

| Sequence | IC50 (HLA-A*01:01 [12]) [µM] | IC50 (HLA-A*02:01 [13]) [µM] | IC50 (HLA-A*03:01 [14]) [µM] | IC50 (HLA-A*11:01 [15]) [µM] | IC50 (HLA-A*24:02) [µM] | IC50 (HLA-A*25:01) [µM] | IC50 (HLA-A*29:02) [µM] | IC50 (HLA-A*31:01 [16]) [µM] | IC50 (HLA-A*68:02) [µM] | IC50 (HLA-B*07:02 [17]) [µM] | IC50 (HLA-B*08:01) [µM] | IC50 (HLA-B*14:02) [µM] | IC50 (HLA-B*18:01 [18]) [µM] | IC50 (HLA-B*35:01) [µM] | IC50 (HLA-B*37:01) [µM] | IC50 (HLA-B*40:02) [µM] | IC50 (HLA-B*44:03) [µM] | IC50 (HLA-B*51:01 [19]) [µM] | IC50 (HLA-B*53:01) [µM] | IC50 (HLA-B*58:01 [20]) [µM] | other results |
| --- | --- | --- | --- | --- | --- | --- | --- | --- | --- | --- | --- | --- | --- | --- | --- | --- | --- | --- | --- | --- | --- |
| VAAKGAPAL |  |  |  |  |  |  |  |  |  |  |  |  |  |  |  |  |  |  |  |  | Kd (HLA-A*01:01 [1]; [23]): ≥ 20 µM; Kd (HLA-A*02:01 [2]; [23]): ≥ 20 µM; Kd (HLA-A*03:01 [3]): ≥ 20 µM; Kd (HLA-A*11:01 [4]; [23]): ≥ 20 µM; Kd (HLA-A*30:01): ≥ 20 µM; Kd (HLA-A*31:01 [5]; [23]): ≥ 20 µM; Kd (HLA-A*69:01; [23]): 0.0677 µM; Kd (HLA-B*07:02 [6]; [23]): 0.279 µM; Kd (HLA-B*15:01): ≥ 20 µM; Kd (HLA-B*15:17 [7]): 0.0071 µM; Kd (HLA-B*18:01 [8]): ≥ 20 µM; Kd (HLA-B*27:05; [23]): ≥ 20 µM; Kd (HLA-B*40:01; [23]): ≥ 20 µM; Kd (HLA-B*46:01): ≥ 20 µM; Kd (HLA-B*48:01 [9]): 5.66 µM; Kd (HLA-B*51:01 [10]): ≥ 20 µM; Kd (HLA-B*57:01; [23]): ≥ 20 µM; Kd (HLA-B*58:01 [11]; [23]): 0.952 µM; Kd (HLA-C*03:03): 0.003 µM; Kd (HLA-B*15:09; [23]): ≥ 20 µM |
| REIGDISYL |  |  |  |  |  |  |  |  |  |  |  |  |  |  |  |  |  |  |  |  | Kd (HLA-A*01:01 [1]; [24]): ≥ 20 µM; Kd (HLA-A*02:01 [2]; [24]): ≥ 20 µM; Kd (HLA-A*11:01 [4]; [24]): ≥ 20 µM; Kd (HLA-A*26:01): ≥ 20 µM; Kd (HLA-A*26:03): ≥ 20 µM; Kd (HLA-A*31:01 [5]; [24]): ≥ 20 µM; Kd (HLA-A*69:01; [24]): ≥ 20 µM; Kd (HLA-B*07:02 [6]; [24]): ≥ 20 µM; Kd (HLA-B*08:02): ≥ 20 µM; Kd (HLA-B*08:03): ≥ 20 µM; Kd (HLA-B*27:05; [24]): ≥ 20 µM; Kd (HLA-B*40:01; [24]): ≤ 0.001 µM; Kd (HLA-B*44:02): ≥ 20 µM; Kd (HLA-B*57:01; [24]): ≥ 20 µM; Kd (HLA-B*58:01 [11]; [24]): ≥ 20 µM; Kd (HLA-B*15:09; [25]): 2 µM; Kd (HLA-B*15:17 [21]): ≥ 20 µM; Kd (HLA-B*39:01): 0.309 µM; Kd (HLA-B*48:01 [22]; [25]): ≥ 20 µM |
| WQLSGVVPL |  |  |  |  |  |  |  |  |  |  |  |  |  |  |  |  |  |  |  |  | Kd (HLA-B*48:01 [22]; source organism: Toxoplasma gondii RH): 0.0299 µM |

Second part, led by results:

| IC50 (HLA-A*01:01 [12]) [µM] | IC50 (HLA-A*02:01 [13]) [µM] | IC50 (HLA-A*03:01 [14]) [µM] | IC50 (HLA-A*11:01 [15]) [µM] | IC50 (HLA-A*24:02) [µM] | IC50 (HLA-A*25:01) [µM] | IC50 (HLA-A*29:02) [µM] | IC50 (HLA-A*31:01 [16]) [µM] | IC50 (HLA-A*68:02) [µM] | IC50 (HLA-B*07:02 [17]) [µM] | IC50 (HLA-B*08:01) [µM] | IC50 (HLA-B*14:02) [µM] | IC50 (HLA-B*18:01 [18]) [µM] | IC50 (HLA-B*35:01) [µM] | IC50 (HLA-B*37:01) [µM] | IC50 (HLA-B*40:02) [µM] | IC50 (HLA-B*44:03) [µM] | IC50 (HLA-B*51:01 [19]) [µM] | IC50 (HLA-B*53:01) [µM] | IC50 (HLA-B*58:01 [20]) [µM] | Sequence | other results |
| --- | --- | --- | --- | --- | --- | --- | --- | --- | --- | --- | --- | --- | --- | --- | --- | --- | --- | --- | --- | --- | --- |
| ≥ 20 | ≥ 20 | ≥ 20 | ≥ 20 | ≥ 20 | ≥ 20 | ≥ 20 | ≥ 20 | ≥ 20 | ≥ 20 | ≥ 20 | ≥ 20 | ≥ 20 | ≥ 20 | 0.317 | 2.06 | ≥ 20 | ≥ 20 | ≥ 20 | ≥ 20 | RQSSGSSSSGF |  |
| ≥ 20 | ≥ 20 | ≥ 20 | ≥ 20 | ≥ 20 | ≥ 20 | ≥ 20 | 15.5 | 5.66 | ≥ 20 | ≥ 20 | ≥ 20 | ≥ 20 | ≥ 20 | ≥ 20 | ≥ 20 | ≥ 20 | ≥ 20 | ≥ 20 | ≥ 20 | ELFARSSDPR |  |
| ≥ 20 | ≥ 20 | ≥ 20 | 0.386 | ≥ 20 | ≥ 20 | ≥ 20 | ≥ 20 | ≥ 20 | 13.7 | ≥ 20 | ≥ 20 | ≥ 20 | 0.975 | ≥ 20 | ≥ 20 | ≥ 20 | ≥ 20 | ≥ 20 | ≥ 20 | LVTMGTGTFGR |  |
